Measurements published in patent US20210284724A1 (I MAB BIOPHARMA US, published 2021).
Where two headings read alike, the source gives them in different places.

What was measured:
human CXCL13 [1] = target: T1, human CXCL13 (human, UniProt O43927 23-109); assay: ELISA, coated antigen, chimeric IgG1
T1 construct: also called huCXCL13; rhCXCL13
T1 sequence (looked up): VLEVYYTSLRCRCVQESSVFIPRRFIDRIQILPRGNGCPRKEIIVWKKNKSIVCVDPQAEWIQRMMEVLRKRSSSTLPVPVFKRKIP
Protocol: (§1) Elisa based binding assay. […] Briefly, 100 μl of human CXCL13 or cynomolgus CXCL13 was coated at 0.5 μg/ml overnight and then blocked by 200 μl of 5% BSA in PBS. Serial diluted antibodies were incubated with the coated antigen for 30 min at RT. The resulting plates were washed with PBS/T and incubated with goat anti-human IgG Fc-HRP for 30 min RT. The plates were developed with TMB substrate after washing with 1×PBST for 5 times and reaction stopped with 1N HCl and analyzed by spectrophotometer at OD 450-630 nm.

cynomolgus CXCL13 = target: T2, cynomolgus CXCL13 (cynomolgus, UniProt H6WS58 23-109); assay: ELISA, coated antigen, chimeric IgG1
T2 construct: also called cynoCXCL13; Cyno CXCL13
T2 sequence: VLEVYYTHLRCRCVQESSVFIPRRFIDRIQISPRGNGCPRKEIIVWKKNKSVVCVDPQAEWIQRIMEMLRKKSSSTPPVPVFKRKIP
Protocol: as §1

human CXCL13 [2] = target: T1, human CXCL13; assay: ELISA, huCXCL13 coated on the plate, chimeric IgG1 titrated, OD450
Summary of the method: (§2)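 Human CXCL13 (100 μl at 0.5 μg/ml) was coated onto plates overnight and blocked with 200 μl 5% BSA in PBS. Serially diluted IgG1 antibodies were bound for 30 min at room temperature. After PBS/T washes, goat anti-human IgG Fc-HRP was added for 30 min at room temperature. EC50 came from the antibody titration.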

human CXCL13 [3] = target: T1, human CXCL13; assay: cell-based blocking ELISA, CXCL13 to CHO-K1-CXCR5
Protocol: This example tested the blocking of the anti-CXCL13 chimeric antibodies to CHO-K1-CXCR5 cells. Briefly, 5×10⁴ CHO-K1-CXCR5 cells were plated in 96-well plate with 100 μl of culture medium and incubated at 37° C. overnight. Cells were fixed with 100 μl of 2% PFA at RT for 1 hr after washing with PBS for 1 time. Samples were blocked with 1% BSA in PBST for 1 hr at RT. Antibodies were serial diluted from 50 μg/ml by 3-fold with 1% BSA/PBST and pre-incubated with equal volume of 0.3 μg/ml human CXCL13 for 30 min at RT. 100 μl of antibody-antigen complex was transferred into each cell wells for 30 min at RT. Samples were washed with 1×PBST for 3 times and 100 μl of 3 μg/ml of human Mab5261 antibody was added into each well to capture human CXCL13 and anti-human Fc-HRP was used to indirectly detect human CXCL13 when it bound to CHO-K1-CXCR5 cells.
Then read at 450 nm. […] Among all clones, 415A3D1, 64C10G1, 1H3A11, 414D10F5, 411A11E9, 21H12D9, 71F4A3, 329F2E1 show completely blocking activity and 408E3F3, 19H7E10, 339A6E7 appeared to be partial blockers.

human CXCL13 [4] = target: T1, human CXCL13; assay: SPR Biacore T200
Protocol: (§3) In the second approach, mutations were carried out by multiple libraries including 4 different sub libraries, such as saturated mutation libraries by CDR walking for CDR L1, CDR L3, CDR H3 or CDR L2, CDR H1, CDR H2 and saturated mutation libraries by three aa mutated continuously for CDR H3 or CDR L3. After finishing construction of phage sub libraries, antigen CXCL13 screening followed. Antibodies of these sequences were generated, and affinity testing was performed by Biacore T200. To further optimize the antibodies, the lead clones were then back mutated to its humanized counterpart one aa by one aa. Sequences were generated and synthesized for antibodies. Affinity was tested by Biacore T200.

human CXCL13 [5] = target: T1, human CXCL13; assay: SPR Biacore T200; remark: listed apart in the source
Protocol: as §3

human CXCL13 [6] = target: T1, human CXCL13; assay: ELISA, huCXCL13 coated on the plate, full length humanized IgG1 titrated, OD450
human CXCL13 [7] = target: T1, human CXCL13; assay: SPR Biacore T200; remark: listed apart in the source
Source text: In the first approach, mutations were chosen to target the hotspots in LCDR1, HCDR2 and HCDR3. Usually, CDR3 contributes most to antigen binding and heavy chain is more important than light chain for antigen binding. Moreover, LCDR1 is important for antigen binding. For the first trial, random mutations were targeted to hotspots in LCDR1, HCDR2 and HCDR3. Eliminate hotspots that code for conserved and buried amino acids in CDRs. […] After finishing construction of phage library, antigen CXCL13 screening was followed. Antibodies of these sequences were generated, and affinity testing was performed by Biacore T200.

human CXCL13 [8] = target: T1, human CXCL13; assay: SPR Biacore T200; remark: listed apart in the source
Protocol: To further optimization of 71F4-B, each Mutations in 71F4A3 useful for improving binding (Kon) were added into 71F4-B, the sequences were listed in Table 28. Antibodies according to these sequences were generated and affinity testing was performed by Biacore T200.

human CXCL13 [9] = target: T1, human CXCL13; assay: SPR Biacore T200; remark: listed apart in the source
human CXCL13 [10] = target: T1, human CXCL13; assay: ELISA, huCXCL13 coated on the plate, chimeric IgG1 titrated, OD450; remark: listed apart in the source
Summary of the method: as §2

human CXCL13 [11] = target: T1, human CXCL13; assay: ELISA, huCXCL13 coated on the plate, full length humanized IgG1 titrated, OD450; remark: listed apart in the source
Summary of the method: as §2

B1: 64C10G1 chimeric human IgG1 antibody (antibody, V domains shown)
VH: EVQLVESGGGLVKPGGSLKLSCAASGFTFSSYAMSWVRQTPEKRLEWVATISDGGSDAYYPDNVKGRFTISRDNAKNNLYLQMSHLKSEDTAMYYCARDYYGSGYEDSPMDYWGQGTSVTVSS
VL: DIQMTQSPSSLSASLGGKVTITCKASQDINKYIAWYQHKPGKGPRLLIHYTSTLQPGIPSRFSGSGSGRDYSFSISNLEPEDFATYYCLQYDNLYTFGGGTKLEIK
notes: Chimeric human IgG1; also called chimeric 64C10G1
EC50 (human CXCL13 [1]): 0.0401 µg/mL
EC50 (cynomolgus CXCL13): 0.0563 µg/mL
EC50 (human CXCL13 [2]): 0.0305 nM
IC50 (human CXCL13 [3]): 1.1 µg/mL

B2: 71F4A3-VH1VL1 (Hz71F4) (D54E) humanized IgG1 (antibody, V domains shown)
VH: EVQLVESGGGLVQPGGSLRLSCAASGIDFSRYWMSWVRQAPGKGLEWVAEINPESSTINYAPSLKDRFTISRDNAKNSLYLQMNSLRAEDTAVYYCARQDDYEYYAMDYWGQGTTVTVSS
VL: DIQMTQSPSSLSASVGDRVTITCKASQDVNTGVAWYQQKPGKAPKLLIYSASYRYTGVPSRFSGSGSGTDFTFTISSLQPEDIATYYCQQYYSTPLTFGGGTKLEIK
notes: Full length IgG1, human gamma 1 and kappa; also called Hz71F4A3
apparent koff (pooled screen) (human CXCL13 [4]): 0.00126 s⁻¹
apparent Kd (pooled screen) (human CXCL13 [5]): 2.58 nM
apparent koff (pooled screen) (human CXCL13 [5]): 0.000645 s⁻¹
apparent kon (pooled screen) (human CXCL13 [5]): 250000 M⁻¹ s⁻¹
apparent EC50 (pooled screen) (human CXCL13 [6]): 0.108 nM
apparent kon (pooled screen) (human CXCL13 [7]): 377000 M⁻¹ s⁻¹

B3: 005-3-23 (antibody, V domains shown)
VH: EVQLVESGGGLVQPGGSLRLSCAASGIDFSRYWMSWVRQAPGKGLEWVAEINPESSTINYAPSLKDRFTISRDNAKNSLYLQMNSLRAEDTAVYYCARQEDYEYYALDYWGQGTTVTVSS
VL: DIQMTQSPSSLSASVGDRVTITCKASQDVNTGVYWYQQKPGKAPKLLIYSASYRYTGVPSRFSGSGSGTDFTFTISSLQPEDIATYYCQQGYSTPLTFGGGTKLEIK
koff (human CXCL13 [4]): 0.000403 s⁻¹

B4: 71F4-B (antibody, V domains shown)
VH: EVQLVESGGGLVQPGGSLRLSCAASGIDFSRYWMSWVRQAPGKGLEWVAEINPESSTINYAPSLKDRFTISRDNAKNSLYLQMNSLRAEDTAVYYCARQDDYEYYTMDYWGQGTTVTVSS
VL: DIQMTQSPSSLSASVGDRVTITCKVSQDVNTGVAWYQQKPGKAPKLLIYSASYRYTGVPSRFSGSGSGTDFTFTISSLQPEDIATYYCQQYYSTPLTFGGGTKLEIK
notes: also called 71F4A3-B
Kd (human CXCL13 [5]): 0.195 nM
koff (human CXCL13 [5]): 3.57e-05 s⁻¹
kon (human CXCL13 [5]): 183000 M⁻¹ s⁻¹
Kd (human CXCL13 [8]): 0.36 nM
koff (human CXCL13 [8]): 6.59e-05 s⁻¹
kon (human CXCL13 [8]): 183000 M⁻¹ s⁻¹
Kd (human CXCL13 [9]): < 1 nM

B5: 005-3-18 (antibody, V domains shown)
VH: EVQLVESGGGLVQPGGSLRLSCAASGIDFSRYWMSWVRQAPGKGLEWVAEINPESSTINYAPSLKDRFTISRDNAKNSLYLQMNSLRAEDTAVYYCARQDDYEYYTMDYWGQGTTVTVSS
VL: DIQMTQSPSSLSASVGDRVTITCKVSQDVNTGVAWYQQKPGKAPKLLIYSASYRYTGVPSRFSGSGSGTDFTFTISSLQPEDIATYYCQQYWSTPLTFGGGTKLEIK
koff (human CXCL13 [4]): 0.000158 s⁻¹
Kd (human CXCL13 [5]): 1.24 nM
koff (human CXCL13 [5]): 0.000153 s⁻¹
kon (human CXCL13 [5]): 124000 M⁻¹ s⁻¹

B6: 71F4A3-VH1VL2 (D54E) humanized IgG1 (antibody, V domains shown)
VH: EVQLVESGGGLVQPGGSLRLSCAASGIDFSRYWMSWVRQAPGKGLEWVAEINPESSTINYAPSLKDRFTISRDNAKNSLYLQMNSLRAEDTAVYYCARQDDYEYYAMDYWGQGTTVTVSS
VL: DIQMTQSPSSLSASVGDRVTITCKASQDVNTGVAWYQQKPGKAPKLLIYSASYRYTGVPSRFSGSGSGTDFTFTISSVQPEDIATYYCQQYYSTPLTFGGGTKLEIK
notes: Full length IgG1, human gamma 1 and kappa constant domains
EC50 (human CXCL13 [6]): 0.0961 nM

B7: 005-2-45 (antibody, V domains shown)
VH: EVQLVESGGGLVQPGGSLRLSCAASGIDFSRYWMSWVRQAPGKGLEWVAEINPESSTINYAPSLKDRFTISRDNAKNSLYLQMNSLRAEDTAVYYCARQDDTRYYAMDYWGQGTTVTVSS
VL: DIQMTQSPSSLSASVGDRVTITCKASQDVNTGVAWYQQKPGKAPKLLIYSASYRYTGVPSRFSGSGSGTDFTFTISSLQPEDIATYYCQQYYSTPLTFGGGTKLEIK
koff (human CXCL13 [4]): 0.000776 s⁻¹

B8: 71F4A3 chimeric human IgG1 antibody (antibody, V domains shown)
VH: EVKLLQSGGGLVQPGGSLKLSCAASGIDFSRYWMSWVRRAPGKGLEWIGEINPDSSTINYAPSLKDKFIISRDNAKNTLYLQMSKVRSEDTALYYCARQDDYEYYAMDYWGQGTSVTVSS
VL: DIVMTQSHKSMSTSVGDRVSITCKASQDVNTGVAWYRQKPGQSPKLLIYSASYRYTGVPDRFTGSGSGTDFTFTISSVQAEDLAVYYCQQYYSTPLTFGAGTKLELK
notes: Chimeric human IgG1; also called chimeric 71F4A3
EC50 (human CXCL13 [1]): 0.0381 µg/mL
EC50 (cynomolgus CXCL13): 0.0814 µg/mL
IC50 (human CXCL13 [3]): 3.02 µg/mL
EC50 (human CXCL13 [10]): 0.116 nM

B9: 329F2E1 chimeric human IgG1 antibody (antibody, V domains shown)
VH: EVKLLQSGGGLVQPGGSLKLSCAASGIDFSRYWMSWVRRAPGKGLEWIGEINPDSSTINYAPSLKDKFIISRDNAKNTLYLQMSKVRSEDTALYYCARQDDYDYYAMDYWGQGTSVTVSS
VL: DIVMTQSHKFMSTSVGDRVSITCKASQDVSTGVAWYQQKPGQSPKLLIYSASYRYTGVPDRFTGSGSRTDFTFTISSVQTEDPAVYYCHQYYTIPLTFGAGTELELK
notes: Chimeric human IgG1
EC50 (human CXCL13 [1]): 0.0511 µg/mL
EC50 (cynomolgus CXCL13): 0.0416 µg/mL
IC50 (human CXCL13 [3]): 3.55 µg/mL

B10: 64C10G1-VH1VL3 (D53E, D107E) humanized IgG1 (antibody, V domains shown)
VH: EVQLVESGGGLVQPGGSLRLSCAASGFTFSSYAMSWVRQAPGKGLEWVATISEGGSDAYYPDNVKGRFTISRDNAKNSLYLQMNSLRAEDTAVYYCARDYYGSGYEESPMDYWGQGTLVTVSS
VL: DIQMTQSPSSLSASVGDRVTITCKASQDINKYIAWYQQKPGKAPKLLIHYTSTLQPGIPSRFSGSGSGTDFTFTISSLQPEDFATYYCLQYDNLYTFGGGTKLEIK
notes: as for B6
EC50 (human CXCL13 [11]): 0.0664 nM
